In article PMC13456619, “The (Glg)ABCs of cyanobacteria: modelling of glycogen synthesis and functional divergence of glycogen synthases in Synechocystis sp. PCC 6803” (Febs Letters, 2026):

Experiments:
purified protein [1] = substrate: Nc1ncnc2c1ncn2[C@@H]1O[C@H](COP(=O)(O)OP(=O)(O)O[C@H]2O[C@H](CO)[C@@H](O)[C@H](O)[C@H]2O)[C@@H](O)[C@H]1O; experiment: purified protein; format: biochemical, Synechocystis sp. PCC 6803; settings: 1 mg/mL bovine glycogen primer, 12 mM MgCl2, 50 mM HEPES-NaOH pH 8.0, 30 °C, no GlgB
purified protein [2] = substrate: Nc1ncnc2c1ncn2[C@@H]1O[C@H](COP(=O)(O)OP(=O)(O)O[C@H]2O[C@H](CO)[C@@H](O)[C@H](O)[C@H]2O)[C@@H](O)[C@H]1O; experiment: purified protein; format: biochemical, Escherichia coli; settings: 1 nM enzyme, 1 mg/mL bovine glycogen primer, 12 mM MgCl2, 50 mM HEPES-NaOH pH 8.0, 30 °C, no GlgB

Protein | Km (purified protein [1]) | Km (purified protein [2])
GlgA1 (Synechocystis sp. PCC 6803 substr. Kazusa) (protein, full-length, N-terminal His tag, expressed in E. coli, IMAC and anion exchange) MKILFVAAEVSPLAKVGGMGDVVGSLPKVLHQLGHDVRVFMPYYGFIGDKIDVPKEPVWKGEAMFQQFAVYQSYLPDTKIPLYLFGHPAFDSRRIYGGDDEAWRFTFFSNGAAEFAWNHWKPEIIHCHDWHTGMIPVWMHQSPDIATVFTIHNLAYQGPWRGLLETMTWCPWYMQGDNVMAAAIQFANRVTTVSPTYAQQIQTPAYGEKLEGLLSYLSGNLVGILNGIDTEIYNPAEDRFISNVFDADSLDKRVKNKIAIQEETGLEINRNAMVVGIVARLVEQKGIDLVIQILDRFMSYTDSQLIILGTGDRHYETQLWQMASRFPGRMAVQLLHNDALSRRVYAGADVFLMPSRFEPCGLSQLMAMRYGCIPIVRRTGGLVDTVSFYDPINEAGTGYCFDRYEPLDCFTAMVRAWEGFRFKADWQKLQQRAMRADFSWYRSAGEYIKVYKGVVGKPEELSPMEEEKIAELTASYR | 152 ± 3.6 µM | 
GlgA2 (Synechocystis sp. PCC 6803 substr. Kazusa) (protein, full-length in pET28a, N-terminal His tag, expressed in E. coli, IMAC and anion exchange) MYIVQIASECAPVIKAGGLGDVIYGLSRELELRGHCVELILPMYDCMRYDHIWGLHDAYRNLEVPWYGSSIFCDVFCGWVHGRLCFFIQPKSSDNFFNRGHYYGALDDHMRFAFFSKAAMEFLLRSNKRPDIIHCHDWQTGLVPVLLYEIYRFHGMDHQRVCYTIHNFKHQGIAGANILHATGLNNDSYYFSYDRLQDNFNPNAINFMKGGIVYSNYVNTVSPHHAWEARFSDISCGLGHTLEIHQQKFGGILNGLDYEVWNPEIDPLLASNFSVKTFGDKAKNKQALRERLLLETDDKKPMLCFIGRLDGQKGVHLVHHSIYYALSQGAQFVLLGSATEPNLSKWFWHEKQHLNDNPNVHLELGFDEELAHLIYGAADIIVVPSNYEPCGLTQMIGLRYGAVPVVRGVGGLVNTVFDRDYDQNHPPEKRNGFVFYQPDEYALETALSRAIALYKDDPVAFKTLALQGMAYDYSWNKPGLQYVEAYEYIRA | 219 ± 9.9 µM | 
GlgA^ E.coli (Escherichia coli K-12) (protein, full-length in pET28a, N-terminal His tag, expressed in E. coli, IMAC and anion exchange) MQVLHVCSEMFPLLKTGGLADVIGALPAAQIADGVDARVLLPAFPDIRRGVTDAQVVSRRDTFAGHITLLFGHYNGVGIYLIDAPHLYDRPGSPYHDTNLFAYTDNVLRFALLGWVGAEMASGLDPFWRPDVVHAHDWHAGLAPAYLAARGRPAKSVFTVHNLAYQGMFYAHHMNDIQLPWSFFNIHGLEFNGQISFLKAGLYYADHITAVSPTYAREITEPQFAYGMEGLLQQRHREGRLSGVLNGVDEKIWSPETDLLLASRYTRDTLEDKAENKRQLQIAMGLKVDDKVPLFAVVSRLTSQKGLDLVLEALPGLLEQGGQLALLGAGDPVLQEGFLAAAAEYPGQVGVQIGYHEAFSHRIMGGADVILVPSRFEPCGLTQLYGLKYGTLPLVRRTGGLADTVSDCSLENLADGVASGFVFEDSNAWSLLRAIRRAFVLWSRPSLWRFVQRQAMAMDFSWQVAAKSYRELYYRLK |  | 275 ± 17 µM
